According to US20030134799A1:
Where two headings read alike, the source gives them in different places.

Columns and labels:
[1] = biological target: NMDA receptor of well-washed rat forebrain membranes (rat) (UniProt Q9R1M7); assay: cell-based or functional assay
[2] = biological target: NMDA receptor of primary cultures of rat cerebellar granule cells (rat); assay: cell-based or functional assay
[3] = biological target: NMDA receptor of well-washed rat forebrain membranes (rat) (UniProt Q9R1M7); assay: displacement of [3H]ifenprodil, polyamine-sensitive site
[4] = biological target: NMDA receptor of well-washed rat forebrain membranes (rat) (UniProt Q9R1M7)

Sequence of NMDA receptor of well-washed rat forebrain membranes (rat) (Q9R1M7 24-1135): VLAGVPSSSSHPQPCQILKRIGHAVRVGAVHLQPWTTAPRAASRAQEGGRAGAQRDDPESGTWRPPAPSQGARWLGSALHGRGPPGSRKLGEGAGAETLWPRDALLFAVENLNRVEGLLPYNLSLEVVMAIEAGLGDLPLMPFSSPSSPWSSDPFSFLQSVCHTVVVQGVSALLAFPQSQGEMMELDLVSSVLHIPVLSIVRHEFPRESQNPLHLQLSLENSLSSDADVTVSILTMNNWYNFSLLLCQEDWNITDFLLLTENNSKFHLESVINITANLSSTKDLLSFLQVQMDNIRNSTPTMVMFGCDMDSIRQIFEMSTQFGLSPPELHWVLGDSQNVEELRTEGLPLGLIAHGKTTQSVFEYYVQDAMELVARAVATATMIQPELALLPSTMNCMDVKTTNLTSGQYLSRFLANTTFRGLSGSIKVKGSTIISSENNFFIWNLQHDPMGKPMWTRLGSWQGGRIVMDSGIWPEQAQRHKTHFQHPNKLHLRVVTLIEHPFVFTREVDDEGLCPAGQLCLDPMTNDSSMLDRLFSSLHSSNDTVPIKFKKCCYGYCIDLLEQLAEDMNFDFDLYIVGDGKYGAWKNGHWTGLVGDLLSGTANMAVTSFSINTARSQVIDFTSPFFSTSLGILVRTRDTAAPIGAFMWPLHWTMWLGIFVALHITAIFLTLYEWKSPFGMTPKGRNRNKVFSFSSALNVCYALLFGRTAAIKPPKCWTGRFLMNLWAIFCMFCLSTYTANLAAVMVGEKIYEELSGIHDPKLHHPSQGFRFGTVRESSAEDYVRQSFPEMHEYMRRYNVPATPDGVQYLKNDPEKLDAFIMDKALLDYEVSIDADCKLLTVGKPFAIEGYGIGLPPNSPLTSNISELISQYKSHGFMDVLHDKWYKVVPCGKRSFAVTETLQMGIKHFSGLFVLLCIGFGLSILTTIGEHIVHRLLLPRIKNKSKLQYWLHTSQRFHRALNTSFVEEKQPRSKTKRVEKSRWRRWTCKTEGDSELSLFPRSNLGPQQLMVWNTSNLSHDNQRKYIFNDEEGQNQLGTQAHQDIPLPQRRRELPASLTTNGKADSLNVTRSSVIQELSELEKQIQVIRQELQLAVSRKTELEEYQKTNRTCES

| Substance | % Inh, spermine-enhanced [3H]MK-801 binding [1] [%] | % Sti, [3H]MK-801 binding without spermine [1] [%] | IC (µM), inhibition of spermine-enhanced [3H]MK-801 binding [1] [µM] | further results |
| --- | --- | --- | --- | --- |
| Ac-Con-G (peptide) | 0 | 0 | – | – |
| Ac-Tyr^o-Con-G (peptide) | 73 | 0 | 18.3 | – |
| Ala3-Con-G (peptide) | 34 | 0 | 1.8 | – |
| Ala4-Con-G (peptide) | 0 | 0 | – | – |
| Ala7,10,14-Con-G (peptide) | 100 | 0 | 0.5 | – |
| Ala7-Con-G (peptide) | 100 | 0 | 0.046 | IC50, inhibition of NMDA-stimulated increases in cyclic GMP formation [2]: 77 nM; potency in the cyclic GMP assay relative to Con-G [2]: 4 fold; IC50, antagonism of Gly-stimulated [3H]MK-801 binding, representative experiment [1]: 625 nM; IC50, inhibition of spermine-enhanced [3H]MK-801 binding [1]: 45 nM; IC50, inhibition of spermine-enhanced [3H]MK-801 binding, typical experiment [1]: 50 nM; IC50, reduction of Gly stimulated [3H]MK-801 binding [1]: 500 nM; IC50, reduction of spermine stimulated [3H]MK-801 binding [1]: 45 nM; potency against spermine relative to Con-G [1]: 4 fold; IC50 [3]: 2500 nM; IC50 [4]: > 2500 nM |
| Ala10-Con-G (peptide) | 100 | 0 | 1.1 | – |
| Ala14-Con-G (peptide) | 100 | 0 | 0.16 | – |
| Asn(GlcNAc)^o-Con-G (peptide) | 38 | 0 | 8.8 | – |
| Asn^o-Con-G (peptide) | 83 | 0 | 8.7 | – |
| Con-G(1-5) (peptide) | 50 | 0 | 7.43 | – |
| Con-G(12-15) (peptide) | 0 | 20 | – | EC (µM), stimulation of [3H]MK-801 binding without spermine [1]: 69.8 µM |
| Con-G(12-17) (peptide) | 0 | 20 | – | EC (µM), stimulation of [3H]MK-801 binding without spermine [1]: 58 µM |
| Con-G(14-17) (peptide) | 0 | 61 | – | EC (µM), stimulation of [3H]MK-801 binding without spermine [1]: 1.3 µM |
| Con-G(15-17) (peptide) | 0 | 20 | – | EC (µM), stimulation of [3H]MK-801 binding without spermine [1]: 61.7 µM |
| Con-G-OH (peptide) | 0 | 0 | – | – |
| ConG(1-5)(14-17) (peptide) | 15 | 0 | 100 | – |
| ConG(1-5)AA(14-17) (peptide) | – | 0 | – | – |
| ConG(1-5)AAAA(14-17) (peptide) | – | 0 | – | – |
| ConG(1-5)GG(14-17) (peptide) | – | 0 | – | – |
| ConG(1-5)GGGG(14-17) (peptide) | – | 0 | – | – |
| ConG(1-6)A5(14-17) (peptide) | – | 0 | – | – |
| ConG(1-6)A7(14-17) (peptide) | – | 0 | – | – |
| D-Glu3,4,7,10,14-Con-G (peptide) | 0 | 30 | – | EC (µM), stimulation of [3H]MK-801 binding without spermine [1]: 5.8 µM |
| Glu3,4,7,10,14-Con-G (peptide) | 22 | 79 | 8.5 | EC (µM), stimulation of [3H]MK-801 binding without spermine [1]: 6.7 µM |
| Glu4-Con-G (peptide) | 0 | 0 | – | – |
| Glu7,10,14-Con-G (peptide) | 70 | 0 | > 5 | – |

| Substance | % Inh, spermine-enhanced [3H]MK-801 binding [1] [%] | % Sti, [3H]MK-801 binding without spermine [1] [%] | IC (µM), inhibition of spermine-enhanced [3H]MK-801 binding [1] [µM] | further results |
| --- | --- | --- | --- | --- |
| Glu10,14-Con-G(9-17) (peptide) | 0 | 0 | – | – |
| Glu14-Con-G(12-17) (peptide) | 0 | 30 | – | EC (µM), stimulation of [3H]MK-801 binding without spermine [1]: 47 µM |
| Glu 3,4,7,10,14-Con-G(2-17) (peptide) | 70 | 33 | 5.4 | EC (µM), stimulation of [3H]MK-801 binding without spermine [1]: 0.9 µM |
| Glu 7,10,14-Con-G(6-17) (peptide) | 0 | 0 | – | – |
| Phe(pCl)^o-Con-G (peptide) | 0 | 0 | – | – |
| Phe^o-Con-G (peptide) | 51 | 53 | 6.1 | EC (µM), stimulation of [3H]MK-801 binding without spermine [1]: 6.8 µM |
| Ser3-Con-G (peptide) | 23 | 62 | 3.6 | EC (µM), stimulation of [3H]MK-801 binding without spermine [1]: 8.4 µM |
| Ser4-Con-G (peptide) | 0 | 0 | – | – |
| Ser7-Con-G (peptide) | 100 | 0 | 0.25 | – |
| Ser10-Con-G (peptide) | 100 | 0 | 1.8 | – |
| Ser14-Con-G (peptide) | 100 | 0 | 0.16 | – |
| Ser(p)3-Con-G (peptide) | 34 | 68 | 0.9 | EC (µM), stimulation of [3H]MK-801 binding without spermine [1]: 3.5 µM |
| Ser(p)4-Con-G (peptide) | 0 | 0 | – | – |
| Ser(p)7-Con-G (peptide) | 50 | 0 | 1.04 | – |
| Ser(p)10-Con-G (peptide) | 100 | 0 | 0.56 | – |
| Ser(p)14-Con-G (peptide) | 31 | 0 | 1.12 | – |
| Ser^o-Con-G (peptide) | 41 | 0 | 6.8 | – |
| Tyr3-Con-G (peptide) | 0 | 0 | – | – |
| Tyr7-Con-G (peptide) | 100 | 0 | 0.5 | – |
| Tyr(oMe)^o-Con-G (peptide) | 0 | 0 | – | – |
| Tyr(p)^o-Con-G (peptide) | 0 | 0 | – | – |
| Tyr^o-Con-G (peptide) | 0 | 0 | – | – |
| Tyr^o-Glu3,4,7,10,14-Con-G (peptide) | 0 | 31 | – | EC (µM), stimulation of [3H]MK-801 binding without spermine [1]: 2.7 µM |
| di-iodo-Tyr7-Con-G (peptide) | 100 | 0 | 0.5 | – |
| iodo-Tyr7-Con-G (peptide) | 100 | 0 | 0.5 | – |
| tBu-Tyr^o-Con-G (peptide) | 29 | 69 | 1.5 | EC (µM), stimulation of [3H]MK-801 binding without spermine [1]: 1 µM |
